B1: Y150-F9-7 (bispecific antibody, human IgG1, lambda)
scFv: QVQLVESGGGVVQPGRSLRLSCAASGFTFSTYAMNWVRQAPGKGLEWVARIRSKYNNYATYYADSVKDRFTISRDDSKNTLYLQMNSLRAEDTAVYYCARHGNFGNSYVSWFAYWGQGTLVTVSSGGGGSGGGGSGGGGSQTVVTQEPSLTVSPGGTVTLTCRSSTGAVTTSNYANWVQQKPGQAPRGLIGGTNKRAPGVPARFSGSLLGGKAALTLSGVQPEDEAEYYCALWYSNLWVFGGGTKVEIKGGGGSDKTHTCPPCPAPEFEGGPSVFLFPPKPKDTLMISRTPEVTCVVVDVSHEDPEVKFNWYVDGVEVHNAKTKPREEQYNSTYRVVSVLTVLHQDWLNGKEYKCKVSNKALPASIEKTISKAKGQPREPQVCTLPPSRDELTKNQVSLSCAVKGFYPSDIAVEWESNGQPENNYKTTPPVLDSDGSFFLVSKLTVDKSRWQQGNVFSCSVMHEALHNHYTQKSLSLSPGK
heavy: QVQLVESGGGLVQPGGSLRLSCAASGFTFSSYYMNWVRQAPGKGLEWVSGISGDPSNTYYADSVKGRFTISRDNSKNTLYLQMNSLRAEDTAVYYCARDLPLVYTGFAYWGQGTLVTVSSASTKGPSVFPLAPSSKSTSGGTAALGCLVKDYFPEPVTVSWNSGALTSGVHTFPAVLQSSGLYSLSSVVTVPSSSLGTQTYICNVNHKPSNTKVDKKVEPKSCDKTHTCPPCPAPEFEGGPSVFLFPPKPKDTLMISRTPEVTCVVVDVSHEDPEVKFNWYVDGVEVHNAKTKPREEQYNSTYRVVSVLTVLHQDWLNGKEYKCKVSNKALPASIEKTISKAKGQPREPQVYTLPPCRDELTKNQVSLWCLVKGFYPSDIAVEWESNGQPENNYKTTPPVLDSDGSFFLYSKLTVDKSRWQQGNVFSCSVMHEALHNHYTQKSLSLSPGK
light: DIELTQPPSVSVAPGQTARISCSGDNLRHYYVYWYQQKPGQAPVLVIYGDSKRPSGIPERFSGSNSGNTATLTISGTQAEDEADYYCQTYTGGASLVFGGGTKLTVLGQPKAAPSVTLFPPSSEELQANKATLVCLISDFYPGAVTVAWKADSSPVKAGVETTTPSKQSNNKYAASSYLSLTPEQWKSHRSYSCQVTHEGSTVEKTVAPTECS
B2: IC-5 (bispecific antibody, human IgG1, kappa)
scFv: B1 scFv with Q1E, V11L, R16G, S30N, A49G, D68G, T142A, R163G, V220A, V246L
heavy: EVKLDETGGGLVQPGRPMKLSCVASGFTFSDYWMNWVRQSPEKGLEWVAQIRNKPYNYETYYSDSVKGRFTISRDDSKSSVYLQMNNLRVEDMGIYYCTGSYYGMDYWGQGTSVTVSSASTKGPSVFPLAPSSKSTSGGTAALGCLVKDYFPEPVTVSWNSGALTSGVHTFPAVLQSSGLYSLSSVVTVPSSSLGTQTYICNVNHKPSNTKVDKKVEPKSCDKTHTCPPCPAPEFEGGPSVFLFPPKPKDTLMISRTPEVTCVVVDVSHEDPEVKFNWYVDGVEVHNAKTKPREEQYNSTYRVVSVLTVLHQDWLNGKEYKCKVSNKALPASIEKTISKAKGQPREPQVYTLPPCRDELTKNQVSLWCLVKGFYPSDIAVEWESNGQPENNYKTTPPVLDSDGSFFLYSKLTVDKSRWQQGNVFSCSVMHEALHNHYTQKSLSLSPGK
light: DVVMTQTPLSLPVSLGDQASISCRSSQSLVHSNGNTYLRWYLQKPGQSPKVLIYKVSNRFSGVPDRFSGSGSGTDFTLKISRVEAEDLGVYFCSQSTHVPWTFGGGTKLEIKRTVAAPSVFIFPPSDEQLKSGTASVVCLLNNFYPREAKVQWKVDNALQSGNSQESVTEQDSKDSTYSLSSTLTLSKADYEKHKVYACEVTHQGLSSPVTKSFNRGEC
notes: Comparative: 4420 Fab arm and anti-CD3 scFv (CD3 antibody 2 VH/VL)-Fc fusion peptide
B3: MS-hCD3-IC16 (bispecific antibody, human IgG1, kappa)
scFv: B1 scFv
heavy: B2 heavy
light: B2 light
notes: 4420 Fab arm and anti-CD3 scFv (VH2a/VL5)-Fc fusion peptide, CH2 FES
B4: MS-hCD3-IC17 (bispecific antibody, human IgG1, kappa)
scFv: QVQLVESGGGVVQPGRSLRLSCAASGFTFSTYAMNWVRQAPGKGLEWVARIRSKYNNYATYYADSVKDRFTISRDDSKNTLYLQMNSLRAEDTAVYYCARHGNFGNSYVSWFAYWGQGTLVTVSSGGGGSGGGGSGGGGSQTVVTQEPSLTVSPGGTVTLTCRSSTGAVTTSNYANWVQQKPGQAPRGLIGGTNKRAPGVPARFSGSLLGGKAALTLSGVQPEDEAEYYCALWYSNLWVFGGGTKVEIKGGGGSDKTHTCPPSPAPPVAGPSVFLFPPKPKDTLMISRTPEVTCVVVDVSHEDPEVQFNWYVDGVEVHNAKTKPREEQFNSTFRVVSVLTVVHQDWLNGKEYKCKVSNKGLPAPIEKTISKTKGQPREPQVCTLPPSRDELTKNQVSLSCAVKGFYPSDIAVEWESNGQPENNYKTTPPVLDSDGSFFLVSKLTVDKSRWQQGNVFSCSVMHEALHNHYTQKSLSLSPGK
heavy: EVKLDETGGGLVQPGRPMKLSCVASGFTFSDYWMNWVRQSPEKGLEWVAQIRNKPYNYETYYSDSVKGRFTISRDDSKSSVYLQMNNLRVEDMGIYYCTGSYYGMDYWGQGTSVTVSSASTKGPSVFPLAPSSKSTSGGTAALGCLVKDYFPEPVTVSWNSGALTSGVHTFPAVLQSSGLYSLSSVVTVPSSSLGTQTYICNVNHKPSNTKVDKKVEPKSCDKTHTCPPSPAPPVAGPSVFLFPPKPKDTLMISRTPEVTCVVVDVSHEDPEVQFNWYVDGVEVHNAKTKPREEQFNSTFRVVSVLTVVHQDWLNGKEYKCKVSNKGLPAPIEKTISKTKGQPREPQVYTLPPCRDELTKNQVSLWCLVKGFYPSDIAVEWESNGQPENNYKTTPPVLDSDGSFFLYSKLTVDKSRWQQGNVFSCSVMHEALHNHYTQKSLSLSPGK
light: B2 light
notes: 4420 Fab arm and anti-CD3 scFv (VH2a/VL5)-Fc fusion peptide, CH2 SG2; also called MS-hCD3-17
B5: IC-2 (bispecific antibody, human IgG1, kappa)
scFv: EVQLVESGGGLVQPKGSLKLSCAASGFTFNTYAMNWVRQAPGKGLEWVARIRSKYNNYATYYADSVKDRFTISRDDSQSILYLQMNNLKTEDTAMYYCVRHGNFGNSYVSWFAYWGQGTLVTVSSGGGGSGGGGSGGGGSQAVVTQESALTTSPGETVTLTCRSSTGAVTTSNYANWVQEKPDHLFTGLIGGTNKRAPGVPARFSGSLIGDKAALTITGAQTEDEAIYFCALWYSNLWVFGGGTKLTVLGDGDGSDKTHTCPPCPAPEFEGGPSVFLFPPKPKDTLMISRTPEVTCVVVDVSHEDPEVKFNWYVDGVEVHNAKTKPREEQYNSTYRVVSVLTVLHQDWLNGKEYKCKVSNKALPASIEKTISKAKGQPREPQVCTLPPSRDELTKNQVSLSCAVKGFYPSDIAVEWESNGQPENNYKTTPPVLDSDGSFFLVSKLTVDKSRWQQGNVFSCSVMHEALHNHYTQKSLSLSPGK
heavy: B2 heavy
light: B2 light
notes: Comparative: 4420 Fab arm and anti-CD3 scFv (SP34)-Fc fusion peptide, CH2 FES
B6: IC-3 (bispecific antibody, human IgG1, kappa, N297Q)
scFv: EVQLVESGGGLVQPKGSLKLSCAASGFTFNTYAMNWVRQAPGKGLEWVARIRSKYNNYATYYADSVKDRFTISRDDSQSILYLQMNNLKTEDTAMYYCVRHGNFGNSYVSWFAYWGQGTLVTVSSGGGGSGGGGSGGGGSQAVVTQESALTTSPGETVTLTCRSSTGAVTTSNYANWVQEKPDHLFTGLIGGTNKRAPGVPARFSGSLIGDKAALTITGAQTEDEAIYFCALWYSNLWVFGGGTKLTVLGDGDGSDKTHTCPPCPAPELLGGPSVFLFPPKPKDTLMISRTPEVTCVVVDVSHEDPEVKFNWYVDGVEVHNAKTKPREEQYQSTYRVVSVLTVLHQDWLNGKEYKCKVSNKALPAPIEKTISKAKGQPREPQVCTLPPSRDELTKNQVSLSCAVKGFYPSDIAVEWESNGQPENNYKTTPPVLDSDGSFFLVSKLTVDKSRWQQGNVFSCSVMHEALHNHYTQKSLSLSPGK
heavy: B2 heavy with F235L, E236L, N298Q, S332P
light: B2 light
notes: Comparative: 4420 Fab arm and anti-CD3 scFv (SP34)-Fc fusion peptide, CH2 N297Q
B7: MS-hCD3-IC18 (bispecific antibody, human IgG1, kappa)
scFv: B4 scFv with F112A, V178F
heavy: B4 heavy
light: B2 light
notes: 4420 Fab arm and anti-CD3 scFv (VH2j/VL5a)-Fc fusion peptide, CH2 SG2

This is an account of results in patent US20220041721A1 (WUHAN YZY BIOPHARMA, published 2022).

Residue numbers refer to the chain shown, from its start. In names and notes the source's numbering stands.

In the first experiment the target is T1, human CD3 (human, UniProt P07766 23-207).
T1 construct: whole, on cells; Assays used CD3 positive T cells (or CIK cells) from human blood; also called Human CD3ϵ; CD3 on human CD3 positive T cells
In words: flow cytometry on human CD3 positive T cells.
B1 returned an EC50 of 426 nM.

Molecule B2 registered a half-maximal effective concentration (EC50) of 122 nM.

Turning to B3, the EC50 worked out at 170 nM.

B4: the concentration giving a half-maximal response (EC50) was determined as 122 nM.

In turn, B5 showed a half-maximal effective concentration (EC50) of 172 nM.

With B6, it took 155 nM to reach a half-maximal effect (EC50).

B7 showed an EC50 of 582 nM.

The target in another experiment is T2, monkey CD3 (monkey).
T2 construct: whole, on cells; also called CD3 on monkey CD3 positive T cells
The experiment in a line: flow cytometry on monkey CD3 positive T cells.
With B1, it took 422 nM to reach a half-maximal effect (EC50).

Regarding B2, the midpoint of the response, the EC50, lay at 161 nM.

Take B3: the midpoint of the response, the EC50, lay at 295 nM.

Turning to B4, the EC50 turned out to be 222 nM.

For the molecule B5, the EC50 worked out at 312 nM.

For the molecule B6, a half-maximal response (EC50) required 285 nM.

B7 returned an EC50 of 680 nM.

Another experiment concerns the target T3, Human CD38 (human, UniProt P28907 1-300).
T3 construct: whole, on cells; the assays used the protein on tumor cells
The experiment in a line: flow cytometry on CD38 positive tumor cells (MM.1S or RPMI 8226).
B1 showed an EC50 of 103 nM.
